This is an account of results in paper PMC4898654 (Biochemistry, 2016).

Where no end group is shown, it is not given here.

One assay has as its system Rev1-CT domain. The conditions noted are these: human RIR motifs; cited from earlier work.
The target in assay [1] is Polκ RIR (Homo sapiens) (UniProt Q9UBT6). In words: SPR. The conditions noted are these: cited from earlier work.
Assay [2] shares this target. The assay is described as follows: intrinsic tryptophan fluorescence. The note with it: cited from earlier work.
In assay [3] the target is T1, Human Rev1 C-terminal domain (Rev1-CT; residues 1158-1251) (human, UniProt Q9UBZ9 1158-1251).
T1 sequence (looked up): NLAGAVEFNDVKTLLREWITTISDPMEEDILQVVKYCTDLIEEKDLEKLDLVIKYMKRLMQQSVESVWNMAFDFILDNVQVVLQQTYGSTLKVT
In words: SPR. (SPR reads the build-up and loss of mass on a sensor chip optically.)

Another assay concerns yeast Rev7. The conditions noted are these: unstructured C-terminal part of Pol32, purified proteins; cited from earlier work.

Take CEMSHKKSFFDKKRSER [Polκ-RIR]: the “affinity range of Rev1-CT interactions with RIR motifs” value with Rev1-CT domain is listed as “µM to mM affinities”.

For orientation: Kd means the concentration at which binding is half-saturated. Take Rev1 CTD (from UniProt Q9UBZ9): the results for the equilibrium dissociation constant (Kd) with Polκ RIR (Homo sapiens) [1] and with Polκ RIR (Homo sapiens) [2] were 7600 nM and 300 nM, respectively.

For EMSHKKSFFDKKRSER [Polκ-RIR peptide (residues 560-575) modified with an N-terminal cysteine residue], the Kd in assay [3] worked out at 1700 ± 600 nM.

B1: Pol32: subunit of yeast Polζ (homologue of human PolD3) (protein, UniProt P47110 1-350, looked up)
DNA polymerase delta subunit 3: MDQKASYFINEKLFTEVKPVLFTDLIHHLKIGPSMAKKLMFDYYKQTTNAKYNCVVICCYKDQTIKIIHDLSNIPQQDSIIDCFIYAFNPMDSFIPYYDIIDQKDCLTIKNSYELKVSESSKIIERTKTLEEKSKPLVRPTARSKTTPEETTGRKSKSKDMGLRSTALLAKMKKDRDDKETSRQNELRKRKEENLQKINKQNPEREAQMKELNNLFVEDDLDTEEVNGGSKPNSPKETDSNDKDKNNDDLEDLLETTAEDSLMDVPKIQQTKPSETEHSKEPKSEEEPSSFIDEDGYIVTKRPATSTPPRKPSPVVKRALSSSKKQETPSSNKRLKKQGTLESFFKRKAK
With B1, the “Rev7 - Pol32 interaction” value with yeast Rev7 is on record as “direct interaction”.
